In patent publication US20140287419A1, “Compositions Having Dicamba Decarboxylase Activity and Methods of Use” (priority 2013, published 2014):

B1: 56 (protein)
chain: MAKIICLEEHYLDSELGRACMPVALEQAPFLGDWGKTVADGHNPDRSRPQIEKNALINAKGADLGSRRLRDMDEAGITLQILSVGGFPQLAPEDEAVTLNTAANDRLAEAVRNHPDRFAAFATLPWAQPKDAENELVRAVEKLGFKGALLNGRPSSCFLDHPDYDSLLSRFNKLNVPLYLHPGLPLKSVQQAYFTGFSAEVNARLSMFGWGWHHEAGIHLLRLMLSGAFDKYPNMQVISGHWGEMLPFWLQRLDDSLPLAATGLSRTLTRTFQEHVYVTPSGMLTLPHFKFIYELMGAERILFSVDYPYQTLDGVKTFIDSLPVNKAEKEAIAFRNAERLLGITA
modifications: Enterobacter aerogenes
B2: 4 (protein, listed as Lactobacillus buchneri)
chain: MAKVITLEEHFSSQKLGQKMAEVLPKRPIGNVSPKMQDYMQRSLPPEAELEDVTGSRIQWMDQHQISMQILSYGNQNPQNSDPKFAVELTKLANDELAKAVAKAPDRFRAFASLPVSHPTDAAAELKRGVEELGFKGAMLVRPTSQAHPFFDDPFYLPIFEAAANLNVPVYLHPSFPDSQIIDYYYSNGPWDDKVSGILGTAGYGWHTDVGIQTVRLLLSGVFEKYPNLKLISGHWGEFASFALERMDQVMYPETNLSEPISKIYRDHVYVTPSGILTEPQLKFVKDEVGIEHLLYSIDYPYIKPENSGSFIESSPLTDEEKELFAHGNAEKLLQL
B3: 59 (protein)
chain: MAPSVIDAHAHFLPGSLVTALRSRSDAPDIRTDSNGGESFGIYRTRMPYGRTYDALDVRLARMDELGVDRQILSLPGLFGIDSRPVSQALPLVRAFNDGVADLVRKHPDRFSGIAALPLADLDAAQEEYRRARGDLGLSGLILPGDTFVSVAAAERVRPLFELAATIGGLIFVHPGPLPDETGSAVDAPAPHTDSVVHRRVTVDIQNRMTEVMVTLALTDFLAPYPSVPVQVANLGGSLPFVIERMDHVYALRNPEAPPPSLSLRSLYVDAASLGPRAIALAAEVYGADRVLFGSDYPIFDDGRCLDAVRQTRLSPDARALIAGGNAARMLTQT
modifications: alpha proteobacterium
B4: 55 (protein, listed as Serratia sp.)
chain: MAKIICLEEHTLDKALVMASMPAALEQAPFLSDWGKTVTDGNLPDRSRPQIEKNDLINIKGADIGRGRLDDMDVAGITMQVLSVGGFPHLISAAEGVDLNRAANDRLADAVNAHPDRFAAFATLPWAQPDSAEKELERAVKELGFKGALLNGRPSTHFLDHPDYDGLLARFNALGVPLYLHPGLPVRSVQQAYYGGFSDEVTARLSMFGWGWHHEAGIHLLRLILSGAFDKYPNLQVISGHWGEMLPFWLQRLDDSLPQAATGLRRTIAQTFKEQVYVTPSGMLTLPHFQFIYALLGAERIIFSVDYPYQTLDGVKAFIQSLPVPEEAKEAIAFRNAERLLGLTS
B5: 57 (protein)
chain: MAKLICVEEHVLDPAVGAATQSLVRAEAPYLPDWGSRVLDGRHVADRSRPHVIAPSESARKALEMGEPRLADMDAASIDMQVLSYGGFPQLLPAAQAIDLNRAANDKLALAAQAHPARFAGFATLPWQAPEAAARELERAVKQLGLKGALINGRPGDTFLDDARYAPILAAFDELKVPLYVHPGLPLPAVQAPYYGGFERELSARLAMFAWGWHNEAGIQVVRMLLAGVFDRHPRLQLISGHWGEMVPFFLQRLEDSIPQEASGLQRPIVQTYREHVYISPSGMFTLPHFQFIHALMGAQRILYSIDYPYQSLDGARAFIERLPISDTDKALIAHRNAERLLHL
modifications: Collimonas fungivorans
B6: 54 (protein, listed as Streptomyces sp.)
chain: MAKIIALEEHFSDPAVAKAGAARAQALSPGFAASYSPASGLPYSPSPEVLENLAEKRLADMDAGGITMQVLSGLGAQTVPADVAPALVAGSNDKAAAAVRAHPDRFAAFAALPTAAPEAAVAELDRSINELGFVGTLIMGRTEGEFLDAPRFEPILARAAALKVPVFLHPGVPPREITDSNYAAGLPTGIGTRLQTAAWGWHQETAVHFLHLVHSGVLDRYPGLQFILGHWGEMIPFYLDRVDEALPQRATGLDRSFHEYFRENVYLAPSGMWSQAQLRFCLETVPLERIVFAVDYPFIGNEGAVPFLEKAELPEADKRKIAHENAERLLGL
B7: 60 (protein, listed as Catenulispora acidiphila)
chain: MARGFVRTAVVPGFWDAGWRGAGQPGGMRVDVHAHLFPAAYLDLLDDFRQDGGVGTREVRALGGGDGERELRLRLAAMDAVGVDVQLLSTCPQGPYTGDPTAAVEAARCANVALAQTVAQYPERLRALAALPLPHILASVDELNRAMEQDGMLGAAVGTSILGRPLSHPDFEPLFAALNRRKGVLFVHPIGESAGSPLMQASKLDRVIGYAAEVSTAILQLFQAGLTVKYPDIRIIAPHMGGYLPFLIQRLDRHRDWYLPKDAPSAGQLMRGIAYDTANPLPAALRLTAEVVGPERLLLGTDYPFEQGPSLRDHIEYILAAGLPEAQAKMIVDVNAADFLDMRSGAEQPPV
B8: 53 (protein, listed as Granulicella tundricola)
chain: MARTITLEEHFVTDSFLRATGAYDKPAPPWLAQLQPKLLDLGDGRIAAMDEAGIDLQVLSLAALGFDALDAATATPLVHDINDELAAAVRANPTRLAAFASLALKDPQSAARELERAIQKLGFRGVLLDGTTDGLFLDDPRFTPVFEAAVALNVPIYLHPAPPPESVFDTYFTGLPEGVGQMLSIAGWGWHAETALHTLRLITNGVFDRYPTLQLIIGHMGEMLPMALARTSKALSHAARLRQPVAAYFQSNIHLTTSGYFTQPPLRCALDVVGIDRLMFSIDYPFSANTLGRDYLTELEQTLTPEDLAKLIHRNAESLLNLS
B9: 61 (protein, listed as Gordonia amarae)
chain: MATGAGSGVPSPADRVIVRSPGVIDVHAHAVLPMSLGCAGAAGPEIGYREDGSPFFRVGEYVLNGVRYEGSAFMDPEVRVAAMDAAGIGLQMISPNPITYFTRLDARSATDYARAHNDAIAEAAGRHPGRLVGAAQLPMQDVPAAIAELERSVRELGLVAAYIDTDIGDRTLDAPELDDFYSAAVELDVPVFIHPSPVGQEGPPDDTRLRRFDLDLLLGFSYDETLAVAALVFGGVLERHPALDVCLSHGGGTLAFVAGRFARAVAKPRAWVPEFLVENGIESYLRRLWLDTHVHSAGSLRLLIDTVGTDRLVFGTNFAGWDADGATEVDALGDLRETTTANAAHLLRLGRA
B10: 58 (protein)
chain: MARVIALEEHYATTEFLRGPGTWLASRPGIVEPAGDLGDGRIAAMDQAGVDLAVLSLAAPGVEQLDPDDAVRLARDCNDQLAAAVRRYPDRLAGFATVPTSAPDRAADELERAVRGLGFPGAVINGHSRGRYLDDPFFEPVLARAAELQAPIYLHPTIPPAGVIESSYAGFAEPVTFALATVGWGWHINTATHALRMILGGVFDRHPSLQMIIGHMGEATSFMLPRFDATLKPELTGLNHPVSSYLRENFHYTFANFNDHATYANLVAQVGIERVAFSADYPFGSMVDARAFLDGLPLSDDERAAISHRNAEKLLGL
modifications: Mycobacterium colombiense

Assay: 14C assay with IPTG-induced recombinant E. coli cells (14CO2 capture from [14C]-carboxyl-labeled dicamba)
Details: for Dicamba Decarboxylase Activity: IPTG-induced recombinant E. coli cells, [14C]-carboxyl-labeled dicamba, 14CO2 capture; for Enzymatic Detection level: dicamba decarboxylation activity of the protein of the given SEQ ID NO

Molecule	Dicamba Decarboxylase Activity	Enzymatic Detection level
B1	High	High
B2	High	High
B3	No	No
B4	High	High
B5	High	High
B6	High	High
B7	No	No
B8	High	High
B9	No	No
B10	High	High
